Results taken from patent US20150139997A1 (Genmab, published 2015).
Values belong to the binder of their own block, whether it stands above or below them.

Legend:
[1] = biological target: T1, recombinant TRAIL (R&D Systems) (UniProt P50591 114-281); assay: ELISA, coated antigen 100 ng/mL
T1 construct: Bought reagent, used coated in the ELISA and soluble at 100 ng/mL on H4 cells; also called Apo2L; TRAIL ligand

[2] = biological target: T2, FasL (Tebu-bio) (UniProt P48023 134-281, limits assumed); assay: ELISA, coated antigen 100 ng/mL
T2 construct: Bought reagent coated at 100 ng/mL
T2 sequence (looked up): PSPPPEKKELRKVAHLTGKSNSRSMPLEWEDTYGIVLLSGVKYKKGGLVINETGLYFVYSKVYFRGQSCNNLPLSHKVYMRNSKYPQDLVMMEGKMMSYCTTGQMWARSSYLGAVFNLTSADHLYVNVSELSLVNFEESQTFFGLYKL

[3] = biological target: T3, DR4 (R&D Systems) (UniProt O00220 24-239, limits assumed); assay: ELISA, coated antigen 50 ng/mL
T3 construct: Bought reagent coated at 50 ng/mL; also called TRAIL-R1

[4] = biological target: T4, DcR1 (R&D Systems) (UniProt O14798 26-221, limits assumed); assay: ELISA, coated antigen 50 ng/mL
T4 construct: Bought reagent coated at 50 ng/mL; also called TRAIL-R3
T4 sequence (looked up): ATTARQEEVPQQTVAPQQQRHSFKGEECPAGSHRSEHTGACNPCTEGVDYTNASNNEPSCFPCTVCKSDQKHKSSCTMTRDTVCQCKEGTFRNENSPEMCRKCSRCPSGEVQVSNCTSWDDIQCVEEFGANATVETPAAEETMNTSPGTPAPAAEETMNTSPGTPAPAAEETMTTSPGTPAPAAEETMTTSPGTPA

[5] = biological target: T5, DcR2 (R&D Systems) (UniProt Q9UBN6 56-211, limits assumed); assay: ELISA, coated antigen 50 ng/mL
T5 construct: Bought reagent coated at 50 ng/mL; also called TRAIL-R4
T5 sequence (looked up): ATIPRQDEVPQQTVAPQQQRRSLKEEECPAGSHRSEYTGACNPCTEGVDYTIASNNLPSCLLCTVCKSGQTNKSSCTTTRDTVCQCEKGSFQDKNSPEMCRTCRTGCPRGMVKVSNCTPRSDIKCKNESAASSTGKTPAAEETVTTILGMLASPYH

[6] = biological target: T6, Fas (R&D Systems) (UniProt P25445 26-173, limits assumed); assay: ELISA, coated antigen 50 ng/mL
T6 construct: Bought reagent coated at 50 ng/mL
T6 sequence (looked up): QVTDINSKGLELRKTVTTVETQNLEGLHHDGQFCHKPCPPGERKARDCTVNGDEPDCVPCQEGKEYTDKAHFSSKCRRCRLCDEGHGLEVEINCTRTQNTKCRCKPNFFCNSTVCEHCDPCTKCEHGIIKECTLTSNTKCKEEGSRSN

binding result [1]: no binding (tested: 1 µg/mL)
binding result [2]: no binding (tested: 1 µg/mL)
binding result [3]: no binding (tested: 1 µg/mL)
binding result [4]: no binding (tested: 1 µg/mL)
binding result [5]: no binding (tested: 1 µg/mL)
binding result [6]: no binding (tested: 1 µg/mL)
B1: mDR5-01 (antibody, V domains shown)
VH: EVQLQQSGAEFVKPGASVKLSCTASGFNIKDTFIHWVKQRPEQGLDWIGRIDPANGNTKYDPKFQGKATETTDTSSNTAYLQLSSLTSEDTAVYYCVRGLYTYYFDYWGQGTSVTVSS
VL: DIVLTQSPATLSVTPGDSVSLSCRASQSISNNLHWYQQKSHESPRLLIKFASQSISGIPSRFSGSGSGADFTLIINSVETEDFGMYFCQQGNSWPYTFGGGTKLEIK

binding result [1]: no binding (tested: 1 µg/mL)
binding result [2]: no binding (tested: 1 µg/mL)
binding result [3]: no binding (tested: 1 µg/mL)
binding result [4]: no binding (tested: 1 µg/mL)
binding result [5]: no binding (tested: 1 µg/mL)
binding result [6]: no binding (tested: 1 µg/mL)
B2: mDR5-05 (antibody, V domains shown)
VH: EVQLQQSGAELVKPGASVKLFCTASGFNIKDTHIHWVKQRPEQGLEWIGRIDPANGNTEYDPKFQGKATIRVDTSSDTAYLQLSSLTSEDTAVHYCARWGTNVYFAYWGQGTSVTVSS
VL: DIQLTQSPAIMSASPGEKVTISCSASSSVSYMYWYQQKPGSSPKPWIYRTSNLASGVPGRFSGSGSGTSYSLTISSMEAEDAATYYCQQYHSYPPTFGGGTKLEIK
notes: mouse IgG1 is implied
